Here are results for 14 sequences from the DeepSol protein solubility set.

The data set in a line: soluble on expression in E. coli; label from the status in PepcDB or PDB records.
Turning to “MGSDKIHHHHHHMRHLKAFYVFHVTAESSNYSKAAEKLHITHGAVSKQIKLLESHLSQMLFYKQGRGMCLTQEGELLKQYTDIAFNALDNGIKKLTRESNKHLEVSCEPTLTMRWLMPRLASFFRLTGIDVRLSTAGGPVDLNETGLSLAIRRDDFDISPEYTAHNLVNEWVGPVFSPEYWRKSQNNLGDIVLLHSETRPSAWSDWSSRSKHTFYTNKSKSFEHFYFCLQAAVDGLGAAIGSYPLIVDDLKSGRLVAPFGFTQSGHKYVLLSHTERLGSNELEFLTWLEKTMSLCQPETP”, the “soluble on expression in E. coli” value is listed as “not soluble”.

For “MSEPLHALARQLEQAIRASEPFQQLKRAYEDVRRDETAYRMFANVRDIQLRLHEKQMRGAAILPDEIEQAQKAMALAQQNEKLARLMALEQQMSITIAEVQQIAMKPLEELHRSFMEGR”, the “soluble on expression in E. coli” value was “soluble”.

For the sequence “MNFIYPAVIAAVQEGEKAWGTTHPNPPVGAVVLSSNGSIVGRGHTQPPGGSHAEIMALRQAGENTKGGTLVVTLEPCNHWGRTGPCSHAISESGIEHVVYLMQDTGSLEKGGAEYLRRQGLKVTFLGLSVAALIPWQASKDRGWPYVVGKTAHTLDGFVAAEDHSSKWITGSASRDYANRQRRHFDAIIVGTGTVKADNPALTARKDDGTLLPHQPLKVVIGTSKISEGTQLARSGFVQFSTIEEALVQLWDRGVRYVLVEGGPHLLHGFLTSGNLDQLHSYSAPMLLTRGVSLLQEEEKKSAESANTTIASALRGSPQSISMLGDDILQVINI”, the “soluble on expression in E. coli” value is on record as “not soluble”.

As for “MNVGLSAEVRYHWFREHLVVVGDWHRLSPSERDRLRHQPMPDEAAQSLRVDLSPWSCGMVFSELLGADLTRFGLCYLAPAEVPASDLTRLGRRLREEFPLLDSQVDSGAEGFELVVHGQPEESPALEVGPFADENALIAALLQRPHSLFERGLLRLFHGRCGGRARWGVWLHHLVADADFASVLLARLAVLNADPTTEAAAPEFGFLQQQWRLERQLRERRTRLEDYWSERGEAFRELASLPWAERASHCEDFRLAATPGGGEAALLTRLACALALALASQGATGKVLALTPVSLRSRRGTAVSGCWLNLVPLLLDAATAEDTFERHRLEAFEHSLLPAEAIAERAGLRYADAQVMINVIDQPFHSAGFIHRPTLKSRLPLTLTLVRRDDGGWDASLASRFGRERTLALAAAMAEALRPC”, the “soluble on expression in E. coli” value was “not soluble”.

“MKLKTTLFGNVYQFKDVKEVLAKANELRSGDVLAGVAAASSQERVAAKQVLSEMTVADIRNNPVIAYEDDCVTRLIQDDVNETAYNQIKNWSISELREYVLSDETSVDDIAFTRKGLTSEVVAAVAKICSNADLIYGAKKMPVIKKANTTIGIPGTFSARLQPNDTRDDVQSIAAQIYEGLSFGVGDAVIGVNPVTDDVENLSRVLDTIYGVIDKFNIPTQGCVLAHVTTQIEAIRRGAPGGLIFQSICGSEKGLKEFGVELAMLDEARAVGAEFNRIAGENCLYFETGQGSALSAGANFGADQVTMEARNYGLARHYDPFIVNTVVGFIGPEYLYNDRQIIRAGLEDHFMGKLSGISMGCDCCYTNHADADQNLNENLMILLATAGCNYIMGMPLGDDIMLNYQTTAFHDTATVRQLLNLRPSPEFERWLESMGIMANGRLTKRAGDPSLFF”: the “soluble on expression in E. coli” value was “soluble”.

With “MGLELFLDLVSQPSRAVYIFAKKNGIPLELRTVDLVKGQHKSKEFLQINSLGKLPTLKDGDFILTESSAILIYLSCKYQTPDHWYPSDLQARARVHEYLGWHADCIRGTFGIPLWVQVLGPLIGVQVPEEKVERNRTAMDQALQWLEDKFLGDRPFLAGQQVTLADLMALEELMQPVALGYELFEGRPRLAAWRGRVEAFLGAELCQEAHSIILSILEQAAKKTLPTPSPEAYQAMLLRIARIP”, the “soluble on expression in E. coli” value is “soluble”.

Consider “AHHHHHHGSRELVEIIKGIGIEGAKEVEEKVDRQFYALQYLFRHQDPEMFIKLVIANSLVSYQLTGRGEDWWWEFARYFSGREVDSIWKAYGEFLPKSKNNRRLIEAKLNRIRKVEGFLSTLTLKDLEGYYKNMKMLWKALIKIMGSREDSKTIVFTVKMFGYASRIAFSRFIPYPMEIPIPEDLRIKSVTSKLTQEKPTKFWMKIGQESGVPPLHIDSLIWPLLGNADLTPLDIELRNKLMKLTELLGL”, for which the “soluble on expression in E. coli” value is “soluble”.

Regarding “MGSDKIHHHHHHMNTITPISTRRVTLALQGGGSHGAFTWGVLDRLLEEPRLRIEAVSGTSAGAMNAACLAHGLADSGRQGARDTLERFWTAISNAAAFSPIRRSPLAIWLGNWSVADSMGYLMSTAFGRALSPYQSNPLNINPLRETVERIIDFDAVRACRDLSLFVTATNVHTGRPRIFTREDLSVDAVLASACLPHLFQAVEIDGVPYWDGGYVGNPALWPLIYETDVRDLLLVRINPLIREQTPMTGLEIADRLNEITFNASMFREMRAIAFVGRMLDEGSLDPERYKRMLIHAIEAEDDLKSLGASSKLNAELPFLFHLRDIGRRAADDWLTKNLEKIGYESTVDVASAYL”, the “soluble on expression in E. coli” value was “not soluble”.

Regarding “AIALPADGIVCFPGQTWEKVLSKVKKAVVFMDDRCSESLHWNGGAALLFEAGARNIKQFSSFEAGAQNEPKAVFVVSTVLKGRTADIIKDIISLSHFQYCVVFTTVPHSIHLLANNVNADLEGNPVFEQFEEKLCEWMGDMNYTAEVMHAPVVFAPLTEHLHLLPAFSNLFPLLDVDLESINEKRPEKKRFGSLMDMDVHSLPPGLQIQIKTLALTLNGLFEFISTREESFSVGPMSRLIATELANLPQAKNRRKTAPNKASVVFVDRTLDLTGAVGHHGDNLAEKILSVLPQLPGHVTDVQVDMLELTHLKPTTDTKGILAPGCLAQNQSATAKLLWETMLVAKQKEAVIEVRRQLVEAASKENLPIKMSLGRVTAEQLCSYVQLFRDSWGALESHSGVLQLGLAAAQALRHPALQRWDACLAFERLLLQALGDSDLAGVLKQLLPLIKSSESGTGSDLSMDDLLVLLVYVYSVAKEACSGGSEEEKQVEKVEQELIGALTLRLTRETTLSPLVQEVTGVSCPEELTMECAHSVLESMFGTLRGVARARDHLKNFSSVFTPGDGAHQDQHRYILILMIQDQHQ”, the “soluble on expression in E. coli” value was “soluble”.

For “MLIKVKTLTGKEIELDIEPNDRVERIKEKVEEKEGIPPPQQRLIFAGKQMNDDKTAADYKVLGGSVLHLVLALRGGF”, the “soluble on expression in E. coli” value was “not soluble”.

Regarding “MSLEKVGTIGVAIPSATHGFMGGLNFHAQDTIKRLQQVYPQLDFVLATAGNAGKMVNDIEDMVATRNISALVVLPFESEPLTSPVQAVKEAGIWVTVVDRGLSVEGIEDLYVAGDNPGFGRVAGEYFAQHLESGKKIVVLRGIPTTLDNERVEAFTAAIEGSGIEVLDMQHGNWNRDDAFNVMQDFLSKYPQIDAVWAADDDMAIGAMEAIAQAGRTEEMWVMGGAGMKEIIRRIADGDPQLPANVTYPPAQISTAIELTALKLVSSTPVSGRFIIGSQLVTPENAEQFYFPDSEGHHHHHH”, the “soluble on expression in E. coli” value is “soluble”.

Turning to “MGSDKIHHHHHHVTSDLDFHLFCPKGALSDLVQGIWSVSRPAEADELHAWLHSDAASGLLINLGAPLGYDEQEVPAGVYLLPVNKQTTRVTLPPGALAVGVRFLPGAGRAWMMERFAFEQGREAITPLTYHAELMALAASLRACRGHRQRLSLTYRWLRANQTLNQPLPRVINEVLQALDRPDADMTAFENGVMSQRQIERYFRRYLEMTPKYYQRLMRARQTLQALKLSPLAPLADIALELGFADQAHMTRELKQLIKITPKRYRQLLTQGAG”, the “soluble on expression in E. coli” value is recorded as “not soluble”.

Regarding “MSLESLAAKVVERLNRAESAAELRFCHDELARELRRCLAPEQMKQLAGDVVCVHEAILRRAFFLAERETMKRSVGIRPPAWCWYVMGSIGRCEPTIWTDQDHGILFNCPEEEEAACYEFIRHMAAVGVDMLHEAGYPYCSGYVMATNKRWAQSVRGWEQQLSSYLDSGWPNDIRFLLIAMDMRPLYGEAELAEKARKALFAAVAKRPPLLARMGEHVQFPPVPLGWLGNVQTERWGPYSGAVHMKQSGYVQLTNALKWLACFAHVPTAGTAERRRALEANGVLTAPLSDAVCEALSVYYSIRLKYSTEAGDGREYVLWRALERTEQKQLKQAMRTAKRLQRFVARRVANIHAEGHHHHHH”, the “soluble on expression in E. coli” value is “soluble”.

On to “MSLSFKGFKVVMLILLSTQSYASKLASSIVCDSTIENPCIVQDSKTQFSPVIRYREVASIADVYGGNITGINKFHLSGSEQPSEKGWEAIAESISRKMGAETKKVIVLDLRQESHGYLNGRAITLVSAYNWINLGKSNSQSTLDQENWLAGLRSRKIVNGVLTVPQYVAKQYSQGKSMVVSTVKNEEYYVYKKGFDYYRIFISDHRAPLDSEVDALVALIKNNPEDTWYHVHCRGGKGRTTTVFAMFDMLKNADKVSFEEIIARQASIPPFYNLMVTNREIPELTPYYEQRLQFLIHFYEFARQSLMGYSGTWSEWKKLNEGHHHHHH”, for which the “soluble on expression in E. coli” value is listed as “soluble”.
